System: A549 human non-small cell lung cancer line
Assay: G418 (monolayer) colony growth assay
Type: cell-based
Details: transfected A549, G418 for 3 weeks; mean over three experiments
Excerpt: Figure 6 Talin R8 Mutations Disrupt the Interaction with DLC1 and Affect Its Biological Activity (A) Wild-type GST-talin fragments pull down more DLC1 than the 2E mutants. Extracts of HEK293T cells transfected with GFP-DLC1 and GST-talin constructs were subjected to pull-down assays with glutathione beads followed by immunoblotting with anti-GST and anti-DLC1 on the same membrane (top). The transfected GFP-DLC1 in each sample is shown by the anti-DLC1 blot (bottom) as a loading control. (B) Wild-type GST-talin fragments compete efficiently with endogenous talin to form a complex with DLC1. The supernatants collected after pull-down assay from (A) were reused for co-immunoprecipitation with an anti-talin antibody and blotted with anti-DLC1 (top). A small aliquot from each lane was blotted for endogenous talin as a loading control (bottom). (C) Co-expression of GST or GST-talin fragments (wild-type or 2E mutant) with GFP DLC1 in A549 cells. […] Transfected A549 cells were cultured in G418 for 3 weeks, and colonies counted and quantitated (top). […] Transfected A549 cells were grown for 3 weeks in soft agar, and colonies counted and quantitated (top). […] Lysates from migrated cells were quantitated (top), and representative microscopic images of the migrated cells are shown (bottom). […]

B1: GST-R8: GST-tagged talin R8, amino acids 1,453–1,580 (protein)
chain: NSQAGQQGLVEPTQFARANQAIQMACQSLGEPGCTQAQVLSAATIVAKHTSALCNSCRLASARTANPTAKRQFVQSAKEVANSTANLVKTIKALDGDFTEENRAQCRAATAPLLEAVDNLSAFASNPE
modifications: left off: GST, end not stated, kept
colony growth: no detectable biological activity
